{"source": "paper PMC12362409", "key": {"[1]": {"target": "TRAF3 (UniProt Q13114)", "assay": "anti-Myc co-IP, Flag immunoblot", "conditions": "reference: wild type mMAVS; sites S186,S220"}, "[2]": {"target": "TRAF2 (UniProt Q12933)", "assay": "anti-Myc co-IP, Flag immunoblot", "conditions": "reference: wild type mMAVS; sites S186,S220"}}, "data": [{"substance": "mouse MAVS (mMAVS) (from UniProt Q8VCF0) S186A/S220A (2SA)", "values": [{"measurement": "binding against the reference", "setting": "[1]", "value": "weaker"}, {"measurement": "binding against the reference", "setting": "[2]", "value": "weaker"}]}]}
